From the RNAGym collection of RNA variant scans (doi:10.1073/pnas.2313332121)
This sample holds only a part of the variants without activity.

B1: TPR 5TU (parent)
chain: GGAUCUUCUCGAUCUAACAAAAAAGACAAAUCUGCCACAAAGCUUGAGAGCAUCUUCGGAUGCAGAGGCGGCAGCCUUCGGUGGCGCGAUAGCGCCAACGUUCUCAACUAUGACACGCAAAACGCGUGCUCCGUUGAAUGGAGUUUAUCAUG

Variants of: B1
Experiment: polymerase ribozyme fitness, log enrichment relative to wild type (log ratio); higher = more active; in vitro selection for triplet polymerase activity
Method in brief: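 One round of in vitro selection, in triplicate, was applied to PCR-built, transcribed mutant libraries of each subunit of a heterodimeric triplet polymerase ribozyme. The steps were annealing with a biotinylated primer, partner subunit and triplets, incubation frozen at −7 °C, gel excision of extended constructs, streptavidin-bead capture and RT-PCR. Fitness is the logarithm, base 2, of genotype enrichment over wild-type enrichment from inverse-variance-weighted replicate averages of Illumina-sequenced inputs and outputs, keeping genotypes with ≥10 input reads and ≥1 read per output.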

Row | Variant | polymerase ribozyme fitness (log ratio)
1 | U4A A29G U61A G94U G126U G133U U151G | ≤ -4.2
2 | U4C A12C A24U C27G A28G U44A G88A C116U G143A | ≤ -4.2
3 | U4A C8U A24C C96U | ≤ -4.2
4 | U4A C85U | -1.53
5 | A3U U53A G84U A138G G152A | ≤ -4.2
6 | U4A U33A G48C C57U C85U A115G C129G G141U | ≤ -4.2
7 | A3U U61G C95U | -1.39
8 | A3U U7C U56A G58C A60C G70C G88A G94A A115U | ≤ -4.2
9 | A3U C18A A22U A37G C85U | -3.29
10 | U4A A29U C38U U44A U55A C57U C87G C95G | ≤ -4.2
11 | U4A A49G G50C A66C C76G C93U | ≤ -4.2
12 | A3U C93A | -2.19
13 | A3U C93G | -2.5
14 | A3U G94A | -1.21
15 | A3U C35A C43A A52G G88A C108G | ≤ -4.2
16 | U4A G48A C85A C93A A147C | ≤ -4.2
17 | A3U C51U U56G G58C G59A A73G | -3.64
18 | A3U G83A C87U U111G | ≤ -4.2
19 | U4A C43U G65U U77C U111G | ≤ -4.2
20 | A3U G83A | -1.47
21 | A3U G83C | -0.632
22 | U4A G11C A20U A28U G143U U146G | ≤ -4.2
23 | A3U U13G A20U G74C | ≤ -4.2
24 | A3U U31C C57U G86A | -1.99

Row | Variant | polymerase ribozyme fitness (log ratio)
25 | U4A U15G C87U | 0.183
26 | U4A G11C A41U G50C G58A G59U U82C C87U G92U G140A | ≤ -4.2
27 | U4C | 0.371
28 | U4A | -0.014
29 | U4A C5G C8G U9G U53A C54A C72A C79A C85U A115C U139A G140C | ≤ -4.2
30 | U4A A12C U55A G84U | -2.4
31 | U4A U53A U82A A91U A115G U148G | ≤ -4.2
32 | A3U U53A | -1.77
33 | U4A A21C | 0.483
34 | U4A C54U U56A C79G C85U C103G C116U G143C | ≤ -4.2
35 | A3U G25U C27U C36A C87U C105G C118U G152C | ≤ -4.2
36 | A3U C51U C95U | -1.09
37 | A3U C87G A113C | -4.19
38 | U4A C96A A98C A115U A142U G152C | ≤ -4.2
39 | A3U U4A A16U U31A C85U G88A C125U U146G | ≤ -4.2
40 | U4A A17C G94A C149U | -1.61
41 | U4A A22C U56A G124U U135C | -3.48
42 | U4A G84A | -0.288
43 | U4A C5G G58A A73U C75U C85A G100A C105G U145A | ≤ -4.2
44 | U4C A12U C57G C85U A98G G128U | ≤ -4.2
45 | A3U G80U G94U U104G C108U G126C U148A | ≤ -4.2
46 | A3U C32G A49U | ≤ -4.2
47 | A3U U7A C8A C63U U90G | ≤ -4.2
48 | U4A G59A | -1.06

Row | Variant | polymerase ribozyme fitness (log ratio)
49 | U4A A22U C63U G67A C75A G94A C96U | ≤ -4.2
50 | U4A A17G C35A G59C U135A | ≤ -4.2
51 | A3U G11A C14G U53C C76G G117U | ≤ -4.2
52 | U4A C103A | -2.38
53 | A3U U56C C87U A89G U101G | -2.52
54 | A3U G62U G94A | -1.08
55 | A3U G59C C85U G126A | -0.686
56 | A3U G46A A113U | -3.1
57 | U4A C36A G48C G86A | ≤ -4.2
58 | A3U C38A C85G C99U G124A | -3.77
59 | A3U C14G G50C C85U G88A | ≤ -4.2
60 | A3U G70A A89C U139C U144A | ≤ -4.2
61 | U4A C18U G67A C93G G124A | ≤ -4.2
62 | U4A C10U A17G A21C C43U G92A C105A G124C | ≤ -4.2
63 | A3U U7A A37U G67U A91C G143A | ≤ -4.2
64 | A3U C85U C96U C108G G140C | ≤ -4.2
65 | A3U U4A C5U C14G A16U A30C G83U G100A | ≤ -4.2
66 | A3U G65A C85A | -3.12
67 | U4A G83U C95G G124U U148C | ≤ -4.2
68 | A3U U145C | -0.205
69 | A3U C87G | -3.94
70 | A3U C87U | -0.956
71 | U4A A16U A113C A115U | ≤ -4.2
72 | U4A C57A C75G U134G | ≤ -4.2

Row | Variant | polymerase ribozyme fitness (log ratio)
73 | A3U C36U G67U C95A | ≤ -4.2
74 | A3U U31G C36U C96A | -2.99
75 | U4A A19C A41U U56C G124A G143A | -3.84
76 | A3U U56A | -1
77 | A3U U82C U101A | -0.128
78 | A3U C54U | -1.57
79 | A3U U82G U104G | -1.04
80 | A3U U53A U82C C87G C96U C125G | ≤ -4.2
81 | U4A A12U G80U G81U G92C | -0.513
82 | A3U C96U A97G | 0.661
83 | U4C A12G C14U A40G G50A G84U U145C | ≤ -4.2
84 | U4A G50A U82G U134C | -2.39
85 | A3U C35U C54A C85G | ≤ -4.2
86 | U4A A41C G126C | -1.9
87 | A3U C96G | -1.47
88 | A3U C96A | -0.199
89 | U4A C5G A22U G25U A30U C63U A66C G143U | ≤ -4.2
90 | U4A C43G | ≤ -4.2
91 | A3U G83A C118G A142C | -3.66
92 | U4A C18U C79G A91U A142C U148C | ≤ -4.2
93 | A3U G59U U82A C93A A142C | ≤ -4.2
94 | U4A G11A A26C A60G G84U G126U C149G | ≤ -4.2
95 | A3U G84A | -1.14
96 | A3U G84U | -2.4

Row | Variant | polymerase ribozyme fitness (log ratio)
97 | A3U G88A A110G | ≤ -4.2
98 | A3U C76A C87U A113C U130A | ≤ -4.2
99 | A3U G25C C38U C85A C116A C123U | -2.27
100 | U4A C76A G86C A122C | -3.26
101 | A3U C76G A89U C93U G100A A137C G143U U144A | ≤ -4.2
102 | A3U C114U C118G A137C G141C | ≤ -4.2
103 | A3U U6A A39G C96G G124U G141A | -3.93
104 | A3U G80U | -0.722
105 | U4A A21U C38U C85A C87G C103A | ≤ -4.2
106 | A3U C18U A20C A30C A41C C69U G94A C103G | ≤ -4.2
107 | U4A G65A C85U A97U | -2.2
108 | U4A G25U C35U C87A C93G | ≤ -4.2
109 | A3U G48A A89G C95A U102G | ≤ -4.2
110 | U4A C5G C69U C79U C85U G94C G117A G128U | ≤ -4.2
111 | A3U C85G C93G G136A A142C | ≤ -4.2
112 | U4A A28U C93U A97U C105G G126A G136U | ≤ -4.2
113 | U4A A37C U61A A66G G133U U144A | ≤ -4.2
114 | U4A A26G A49C A107G | ≤ -4.2
115 | U4A A16U A17G A21U A24U G84A C114U A122U A142C | ≤ -4.2
116 | U4A C35G G46A C75G G94C C105G | ≤ -4.2
117 | A3U U15G C51A G84U U151G | ≤ -4.2
118 | A3U C35G C93U G100A C105G G133C | ≤ -4.2
119 | A3U C36A G42C C87A A89G G100C | ≤ -4.2
120 | U4C A12G A73G C93U G152A | -3.07

Row | Variant | polymerase ribozyme fitness (log ratio)
121 | U4A C38U C57A A66G C96G C105A C123G G124A C129G | ≤ -4.2
122 | U4A A60U G86A A107G A122C | ≤ -4.2
123 | U4A U15G A91C C114U C125A | ≤ -4.2
124 | U4A C51U G94C A98U | -1.63
125 | A3U G58C | -0.0781
126 | A3U U31G A40U U53A C85U C95U | -3.06
127 | A3U C36U U56G A60C U61G C79U C93U C99U G112C U144A A150C | ≤ -4.2
128 | A3U U7G C87A A91G C103U U135C | ≤ -4.2
129 | U4A A21C G80A | -0.338
130 | U4A A17C G59C A119G | -0.404
131 | A3U C57A | -0.997
132 | A3U C57U | 0.223
133 | U4A A39C U53A C96U C108U A120U C125U | ≤ -4.2
134 | U4A A20U G50C U55A A73G G84A G88C C132U U135A | ≤ -4.2
135 | U4A U9C C27G U55A G70C C85A U127G A142U | ≤ -4.2
136 | A3U C38A C87U C95U G128C | ≤ -4.2
137 | A3U C14U A40U A52U G84A G112C | ≤ -4.2
138 | U4A A37U G94C A150G | -4.19
139 | U4A A20G C35A U55G C72U C99U A120U U146A | ≤ -4.2
140 | U4A C18U A64C G68A C79G | ≤ -4.2
141 | U4A C38U A40U G42U A73G U82C G94U A107G | ≤ -4.2
142 | U4A U6A A28U A30G U44A G59C A60G C87U A89U A97C A107U | ≤ -4.2
143 | A3U C36U | -2.21
144 | U4A C8A U56A A122G G141A | -4.11

Row | Variant | polymerase ribozyme fitness (log ratio)
145 | A3U C36U C95U | -3.09
146 | A3U G84A G94A A98C G124A | -0.883
147 | A3U G81C | -0.0386
148 | U4A G83C G94U U148G | ≤ -4.2
149 | U4A C8A A20U A29C A40G G70C U101A A120U | ≤ -4.2
150 | A3U G46A G50U U56A G74A G84U U130A U144C C149U | ≤ -4.2
151 | U4A C132G U139G | -3.71
152 | U4A A19U A24U C35A C57G A60C U101G | ≤ -4.2
153 | U4A C5U C32A C54U G58A A73G G84A A91G A121U C125U U145C U146C | ≤ -4.2
154 | A3U C76U G124C G141C | -3.96
155 | U4A C51G G84A A106U C118A | ≤ -4.2
156 | A3U U4G U55A A119C | -1.29
157 | U4A U45A C57U A91C | ≤ -4.2
158 | U4A C8U C108G G140C | ≤ -4.2
159 | A3U C51A G124C | -2.87
160 | U4A G34U U61G G70A C99U A107C U139G | ≤ -4.2
161 | A3U C85A | -1.48
162 | U4A G48C C75A C99A U135C A150C | ≤ -4.2
163 | U4A C38A U53G C85U G94C A107G A137C G140A | ≤ -4.2
164 | U4A C14G A40G | -3.69
165 | U4A A23U C35U G46A G84U C103U U139A | ≤ -4.2
166 | U4C A12G U31G G94C A121G | -0.0351
167 | U4A U6A C36U C57G G68U C79G A91C | ≤ -4.2
